According to the supplement of paper PMC9170038:

Tested on: MS2 coat protein
Assay: apparent KD of MS2 coat protein; designed switch direction (-1 OFF switch, 1 ON switch): -1; higher = weaker reporter binding
Conditions: Eterna round: R98
Protocol: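 RNA-MaP: designed FMN/MS2 RNA switches (84 nt design region) are transcribed on-chip within common flanks and titrated with SNAP-549-labelled MS2 coat protein (about 1-3000 nM) in 100 mM Tris pH 7.5, 80 mM KCl, 4 mM MgCl2, without or with 200 uM FMN. Median apparent KD per design; activation ratio = KD,OFF / KD,ON.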

| Sequence | apparent KD of MS2 coat protein (input ligand: FMN 200 uM) [nM] | apparent KD of MS2 coat protein (input ligand: none) [nM] |
| --- | --- | --- |
| CUGGUGAUGUAAGGAUAUGCUGAGGAUAACUCAGCAGAAGGUACAUGAGGAUCACCCAUGUAAAUGAAAGAUAAUAAACACCAG [Excusion NG 1/16-B2] | 30.9 | 15.9 |
| AACCUGACAUAAUAAUGUAGAAAUACAUGAGGAUCACCCAUGUAGGAUAUGCAGUGGAAUACACUGCAGAAGGACAUAGUCAGG [Exclusion NG 3/8-B1] | 21.9 | 14.8 |
